Reference: article PMC5286520

Columns and labels:
Details in all cases: modification not given
[1] = target: V1aR (Homo sapiens), P37288; test: radioligand displacement
[2] = target: T1, V1bR (Homo sapiens), P47901; test: radioligand displacement
T1 chain: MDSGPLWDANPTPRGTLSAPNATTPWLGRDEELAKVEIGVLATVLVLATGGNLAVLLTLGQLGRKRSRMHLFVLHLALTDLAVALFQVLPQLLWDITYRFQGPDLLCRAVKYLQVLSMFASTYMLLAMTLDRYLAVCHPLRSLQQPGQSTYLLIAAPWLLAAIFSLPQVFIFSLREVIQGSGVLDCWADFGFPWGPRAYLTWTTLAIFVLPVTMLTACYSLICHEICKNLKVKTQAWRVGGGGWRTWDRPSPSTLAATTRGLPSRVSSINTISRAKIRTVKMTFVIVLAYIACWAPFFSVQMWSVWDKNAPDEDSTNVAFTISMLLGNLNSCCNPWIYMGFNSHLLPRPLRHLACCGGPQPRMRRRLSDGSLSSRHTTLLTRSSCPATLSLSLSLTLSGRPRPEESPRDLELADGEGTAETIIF

[3] = target: T2, OTR (Homo sapiens), P30559; test: radioligand displacement
T2 chain: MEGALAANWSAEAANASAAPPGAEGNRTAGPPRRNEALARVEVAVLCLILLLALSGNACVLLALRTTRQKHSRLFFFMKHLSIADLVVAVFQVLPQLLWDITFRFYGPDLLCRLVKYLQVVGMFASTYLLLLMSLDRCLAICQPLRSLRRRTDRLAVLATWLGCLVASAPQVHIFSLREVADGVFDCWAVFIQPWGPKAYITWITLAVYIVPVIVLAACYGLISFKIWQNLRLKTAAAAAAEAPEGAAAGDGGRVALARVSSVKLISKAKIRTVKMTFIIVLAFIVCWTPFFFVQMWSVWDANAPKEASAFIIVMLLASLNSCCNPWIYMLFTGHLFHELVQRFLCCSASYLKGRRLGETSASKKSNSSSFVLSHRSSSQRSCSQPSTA

[4] = target: V2R (Homo sapiens), P30518; test: radioligand

Chain of V1aR (Homo sapiens), P37288 (P37288 whole entry): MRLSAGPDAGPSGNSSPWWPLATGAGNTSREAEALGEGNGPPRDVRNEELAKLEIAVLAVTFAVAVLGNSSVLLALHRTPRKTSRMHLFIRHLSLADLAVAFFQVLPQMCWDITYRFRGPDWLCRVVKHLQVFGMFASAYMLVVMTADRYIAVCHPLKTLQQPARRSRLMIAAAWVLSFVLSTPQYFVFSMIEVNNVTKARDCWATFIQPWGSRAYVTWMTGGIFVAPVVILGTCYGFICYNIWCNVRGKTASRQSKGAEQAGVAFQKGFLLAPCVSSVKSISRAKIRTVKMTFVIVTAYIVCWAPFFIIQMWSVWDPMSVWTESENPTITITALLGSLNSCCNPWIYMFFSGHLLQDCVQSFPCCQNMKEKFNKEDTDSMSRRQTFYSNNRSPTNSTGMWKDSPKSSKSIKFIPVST

B1: inotocin (peptide)
chain: CLITNCPRG
[1]
  Ki: 11 nM
[2]
  Ki: 12 nM
[3]
  Ki: 62 nM
[4]
  Ki: > 100000 nM
